Source: publication PMC9596371 (Nature Chemical Biology, 2022)
Residue numbers refer to the chain shown, from its start.

B1: COVA2-14 IgG (antibody, V domains shown)
VH: QVQLVQSGAEVKKPGSSVKVSCKASGGTFSSYAIIWVRQAPGQGLEWMGGIIPIFGTANYAQKFQGRVTITTDESTSTAYMELSSLRSEDTAVYYCARVRYYDSSGYYEDYWGQGTLVTVSS
VL: EIVLTQSPATLSLSPGERATLSCRASQSVSSYLAWYQQEPGQAPRLLIYDASNRATGIPARFSGSGSGTDFTLTISSLEPEDFAVYYCQQRSNWPPMYTFGQGTKVEIK
B2: COVA2-14 Fab (Fab, V domains shown)
VH: B1 VH
VL: B1 VL
B3: COVA2-18 IgG (antibody, V domains shown)
VH: B1 VH with Q1E, I35S, A58T, R100Y, Y101S, E109L, D110E, L117R
VL: B1 VL with E39K, M97S, Y98I, K105R, V106L
B4: CV27 Fab (Fab, V domains shown)
VH: QVQLVESGGGVVQPGRSLRLSCAASGFTFSSYAMHWVRQAPGKGLEWVALISYDGSNKYYADSVKGRFTISRDNSKNTLYLQMNSLRAEDTAVYYCARSFGGSYYYGMDVWGQGTTVTVSS
VL: QSALTQPASVSGSPGQSITISCTGTSSDVGGYNYVSWYQQHPGKAPKLMIYDVSNRPSGVSNRFSGSKSGNTASLTISGLQAEDEADYYCSSYTSSSTPYVFGTGTKVTVL
B5: COV2-2147 IgG (antibody, V domains shown)
VH: B4 VH with V5A, L50V, F100T, G101S
VL: QSALTQPASVSGSPGQSITISCTGTSSDVGDYNYVSWYQQHPGKAPKLMIYDVSNRPSGVSNRFSGSKSGNTASLTISGLQAEDEAEYYCSSYTSSSTLLYVFGTGTKVTVL
B6: COV2-2449 Fab (Fab, V domains shown)
VH: QVQLVESGGGVVQPGRSLRLSCATSGFTFSSFALHWVRQAPGKGLEWVTVISDDGNNKYYVDSVKGRFTISRDNSKNTLFLQMNSLRVEDTAIYYCARASYNSNWSIGEYFRDWGQGTLVTVSS
VL: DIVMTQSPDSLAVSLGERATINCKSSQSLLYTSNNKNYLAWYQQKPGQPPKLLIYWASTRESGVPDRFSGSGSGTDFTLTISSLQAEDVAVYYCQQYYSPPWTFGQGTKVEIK
B7: COV2-2143 Fab (Fab, V domains shown)
VH: EVQLVESGGGLVQPGGSLRLSCAASGFTVSSNYMSWVRQAPGKGLEWVSVIYSAGSTYYADSVKGRFSISRDKSKNTLYLQMNSLRAEDTAVYYCAKEGGSGSLRYYYYGMDVWGQGTTVTVSS
VL: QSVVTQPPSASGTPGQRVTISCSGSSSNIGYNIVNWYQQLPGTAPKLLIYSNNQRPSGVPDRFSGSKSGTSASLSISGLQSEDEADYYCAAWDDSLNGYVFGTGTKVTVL
B8: CV27 IgG (antibody, V domains shown)
VH: B4 VH
VL: B4 VL
B9: COV2-2449 IgG (antibody, V domains shown)
VH: B6 VH
VL: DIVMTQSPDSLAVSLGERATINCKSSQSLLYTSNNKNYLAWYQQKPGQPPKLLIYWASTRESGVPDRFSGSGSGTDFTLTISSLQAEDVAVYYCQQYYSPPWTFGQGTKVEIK
B10: COV2-2143 IgG (antibody, V domains shown)
VH: B7 VH
VL: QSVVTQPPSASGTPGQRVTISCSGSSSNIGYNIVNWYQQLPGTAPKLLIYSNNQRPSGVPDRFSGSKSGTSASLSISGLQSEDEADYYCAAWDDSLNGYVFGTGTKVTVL

Target: T1, SARS-CoV-2 spike protein (FL-GCN4-Avi-His, 2P, biotinylated trimer) (SARS-CoV-2, Wuhan-Hu-1 (strain named …, UniProt P0DTC2, stabilised, biotin on the Avi tag))
Experiment: BLI
Details: both partners purified

Binder	binding result
B1	binds
B2	binds
B3	binds
B4	binds
B5	binds
B6	binds
B7	binds

Target: T1, SARS-CoV-2 spike protein …
Experiment: ELISA
Details: both partners purified

Binder	binding result
B8	binds
B9	binds
B10	binds
